Results from the supplement of paper PMC12764529.
± gives the half width of the 95% confidence interval.

Key:
[1] = folding stability dG unfold from trypsin proteolysis; higher = more stable
Method in brief: (§1)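 Unfolding free energy was derived, per protease or combined, against a sequence-predicted unfolded-state K50 and a shared folded-state K50, starting from K50 inferred by Bayesian fitting of sequencing counts. Digestion with trypsin and chymotrypsin was carried out on designed mini-proteins under 80 residues without cysteine in a PA-tagged cDNA display construct. Only designs with AlphaFold2 dimer inter-PAE above 15 were kept.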

[2] = folding stability dG unfold from chymotrypsin proteolysis; higher = more stable
Method in brief: as §1

[3] = folding stability dG unfold (combined trypsin and chymotrypsin); higher = more stable
Method in brief: as §1

Sequence | folding stability dG unfold [1] | folding stability dG unfold [2] | folding stability dG unfold [3]
SAGGSAMPVEFPSEGVVEAVNPKTGKVYLIRYETGDTKTRFVIFEPGTGEVRVIDEDTTFEEAVEDSAGGSA [r15_234_TrMRF] | 0.802 ± 0.036 kcal/mol | 0.382 ± 0.16 kcal/mol | 0.674 ± 0.088 kcal/mol
SAGGSAMREIRVGDTVVRILSIDPSTGEVHIAVREDLPPETIEAARRALEEAGLRFRVEPVPEELLSAGGSA [r15_570_TrMRF] | 1.73 ± 0.065 kcal/mol | 2.33 ± 0.028 kcal/mol | 2.15 ± 0.053 kcal/mol
SAGGSAMRIKVTLENGEEIEIEIEESMTEEEVKELAEELAKKLAEELGIKEVKVEVEEVELPEEEESAGGSA [r15_33_TrROS_Hall] | 1.68 ± 0.11 kcal/mol | 2.96 ± 0.054 kcal/mol | 2.53 ± 0.11 kcal/mol
SAGGSAMRPLELENPNGREITIWYNPGEGHFQVEIERYEPPPNGKKKPQRHTFMVNSPEDLLDFIKSAGGSA [r15_31_TrROS] | 1.57 ± 0.046 kcal/mol | 1.6 ± 0.15 kcal/mol | 1.65 ± 0.19 kcal/mol
SAGGSAMTITIKIENEDVTIPSSKSKEEILKAIKENPDVPVTVTLPDGTPVTLSPEELEKLIKEEKSAGGSA [r15_36_JUSTAS] | 1.02 ± 0.032 kcal/mol | 1.23 ± 0.022 kcal/mol | 1.11 ± 0.11 kcal/mol
SAGGSAMTIYIKNKDGYIIKIEITKIEEIGPNYIKIKMKMEIINKNGEKKEIELELIFKVKNPEELSAGGSA [r15_1035_TrROS_Hall] | 2.54 ± 0.33 kcal/mol | 4 ± 0.099 kcal/mol | 3.79 ± 0.28 kcal/mol
SAGGSAMTKVTVTFDPVTGTYTIKTTDSKGPSEYPLPKSFLEKTPLSEVAKKLNLNISEFTIEPNPSAGGSA [r15_801_JUSTAS] | 0.771 ± 0.044 kcal/mol | 1.25 ± 0.099 kcal/mol | 1.14 ± 0.092 kcal/mol
SAGGSAMTLEDLKDEFVVITLPDGTVVKAKVEEVDTKGPVLTILVGGKPILIPADAPVKIEIEPPKSAGGSA [r15_355_JUSTAS] | 1.74 ± 0.063 kcal/mol | 1.36 ± 0.033 kcal/mol | 1.53 ± 0.043 kcal/mol
SAGGSAMTPEEIRNMSLEEILKLIKEKLEKGEKVEIEITLPDGRKLRITFERLPNGEIKITIEEVDSAGGSA [r15_857_TrROS_Hall] | 3.53 ± 0.2 kcal/mol | 5.04 ± 0.32 kcal/mol | 4.72 ± 0.28 kcal/mol
SAGGSAMTPVTLEITSEEELEAKIEELAPPGRTVTINVTSTTEKTRVEDDVTRDYTVVTANVTFPPSAGGSA [r15_95_JUSTAS] | 0.181 ± 0.1 kcal/mol | 0.573 ± 0.04 kcal/mol | 0.399 ± 0.12 kcal/mol
SAGGSAMTVTLIVGDKPITIPLTASLSDIKAALEEHPDVPVYIILPNGKRIEMKVSDLIKMMEKAGSAGGSA [r15_36_TrMRF] | 2.99 ± 0.058 kcal/mol | 3.35 ± 0.099 kcal/mol | 3.16 ± 0.1 kcal/mol
SAGGSAMVKTADGKEVKVEKVIPLEEMSLEELKALAEKNNKPILIVDKKTKKVIVLTKEELEKLLKSAGGSA [r15_904_TrROS_Hall] | 0.858 ± 0.066 kcal/mol | 1.73 ± 0.071 kcal/mol | 1.33 ± 0.22 kcal/mol
SAGGSAMVLVRIKLKHPEREEVIEVPAGELLEILEHPELNEHWEIVEIEAREVPPEFVEPEELEEESAGGSA [r15_460_TrMRF] | 0.85 ± 0.087 kcal/mol | 0.896 ± 0.18 kcal/mol | 0.888 ± 0.13 kcal/mol
SAGGSAMVRIEVELENGEKLEIEIEVPEEMTEEELLEKAKELAKELAEKLGIPEAKVKVVKIEVVPSAGGSA [r15_463_TrROS_Hall] | 4.06 ± 0.16 kcal/mol | 2.92 ± 0.22 kcal/mol | 3.92 ± 0.23 kcal/mol
SAGGSAMVVIRTTKPGGKVEVLAVNPEDGSKTVKTFSSSTSPKEVFEEVNKEFGGEVKVEKVELKASAGGSA [r15_544_TrMRF] | -0.439 ± 0.18 kcal/mol | -0.912 ± 0.58 kcal/mol | -0.512 ± 0.18 kcal/mol
SAGGSAMVYLVTVTIKSEGKEVRYKEWVESDEPEKLIEKVKKEYPNEEIKVEITPFPSKEEAEKLLSAGGSA [r15_889_JUSTAS] | 2.36 ± 0.098 kcal/mol | 2.48 ± 0.042 kcal/mol | 2.41 ± 0.096 kcal/mol
SAGGSAMYKVEVTATTSSSSTPYPLEMDFETEEEAKERVKKYLEEKYGDPISSIETKIEPVEPGLESAGGSA [r15_670_JUSTAS] | -0.314 ± 0.21 kcal/mol | -0.645 ± 0.57 kcal/mol | -0.234 ± 0.36 kcal/mol
SAGGSAMYYRFEIPRPDGVIEEIWIKMTPEEAKALVEALEADPNVASVKVEAITEEEARKLGIFENSAGGSA [r15_39_JUSTAS] | 4.17 ± 0.28 kcal/mol | 4.46 ± 0.12 kcal/mol | 4.34 ± 0.18 kcal/mol
SAGGSANGYFILIKIEEIKLTKMRRDPDGKQWQWNFSVKIKIEVVKVFRIKPDPNGNWKIEPGDPISAGGSA [r15_162_TrROS] | 3.01 ± 0.11 kcal/mol | 3.33 ± 0.053 kcal/mol | 3.25 ± 0.12 kcal/mol
SAGGSANNWKPIGEFPFRHPDGWRVTVPIWRDPGEGNIKINVKYQGPNGPPSKQMKEWAKKLLDEISAGGSA [r15_529_TrROS] | 0.936 ± 0.15 kcal/mol | 0.654 ± 0.32 kcal/mol | 0.866 ± 0.31 kcal/mol
SAGGSANPNGKPWVEVEVSFMIPIDDEDIADALGGPPKPGDWLMITVKIRVYPDGNVEIDINLHPMSAGGSA [r15_91_TrROS] | 3.96 ± 0.14 kcal/mol | 3.88 ± 0.22 kcal/mol | 3.95 ± 0.19 kcal/mol

Sequence | folding stability dG unfold [1] | folding stability dG unfold [2] | folding stability dG unfold [3]
SAGGSANWYIKITIEYPNGREWEIPFPFKSVEDVKDQIKNAAREYFPNLPPEDVKIDDIELYPLDDSAGGSA [r15_220_TrROS] | 1.3 ± 0.056 kcal/mol | 2.01 ± 0.04 kcal/mol | 1.83 ± 0.097 kcal/mol
SAGGSAPARIVLPGGRTRTLRLSEISPELLAAFPDVLVRLPGGEVRRLPADTLLSLEGDYTLVVPGSAGGSA [r15_733_TrMRF] | -0.262 ± 0.18 kcal/mol | 0.573 ± 0.12 kcal/mol | 0.335 ± 0.099 kcal/mol
SAGGSAPDWKIVDIEPTDNSITITVEAPPGVRVMIFNPGNGKVQHRPFPPGDTITIPPRMYIMVWVSAGGSA [r15_418_TrROS] | 2.43 ± 0.032 kcal/mol | 3.121 ± 0.03 kcal/mol | 2.84 ± 0.081 kcal/mol
SAGGSAPEALVFVERREDDSLTVVVLFPDGTLVTRRVEVRDEGVTVETETAPVLVIPEPGRLELALSAGGSA [r15_746_TrMRF] | 0.595 ± 0.029 kcal/mol | 1.39 ± 0.046 kcal/mol | 1.14 ± 0.051 kcal/mol
SAGGSAPEPIRFYFWWPGKIIEITIPPDEIEKVEIKPDNGDIDITVKLPGEEVEISITPGAIHVQTSAGGSA [r15_598_TrROS] | 1.56 ± 0.11 kcal/mol | 2.57 ± 0.032 kcal/mol | 2.29 ± 0.17 kcal/mol
SAGGSAPFPIKISTIRYPDGYIRMEIWIPPDAPIKIKFPNGFEMEVEPVPNGYYRITMYFRIPKEDSAGGSA [r15_523_TrROS] | 3.77 ± 0.094 kcal/mol | 4.79 ± 0.11 kcal/mol | 4.53 ± 0.15 kcal/mol
SAGGSAPGEPIFIRWKIEHPNGNPWTIPFPIKTEEQALEQAIRFAESIAKKLGNPNVKIKIDEIIPSAGGSA [r15_698_TrROS] | 1.11 ± 0.12 kcal/mol | 0.575 ± 0.44 kcal/mol | 0.914 ± 0.21 kcal/mol
SAGGSAPGWYPITYEFEDNNKEIKIEVYYPKEDPMVGVDIEDPDGKVIFTIWFPADNAEKALKEILSAGGSA [r15_940_TrROS] | 1.23 ± 0.07 kcal/mol | 1.49 ± 0.071 kcal/mol | 1.39 ± 0.092 kcal/mol
SAGGSAPKEGTIWIMIPVRYERDPNGKVKPISAEQIADLFQELGFPIKIDEIFDSPGYIMIRIKVKSAGGSA [r15_225_TrROS] | 2.5 ± 0.075 kcal/mol | 3.204 ± 0.032 kcal/mol | 3.04 ± 0.16 kcal/mol
SAGGSAPLPPGAVVEIVEVRFDPETRRIEMVVKVYDANGELVATLRVELEFDPETNELTLRVELLPSAGGSA [r15_1028_TrROS_Hall] | 3.41 ± 0.24 kcal/mol | 4.5 ± 0.18 kcal/mol | 4.23 ± 0.14 kcal/mol
SAGGSAPMFEIWFRDPEAIEKLLEESGFPVSIERFPNDPNWVKITIFMKGPMEEAQDKLREALGLESAGGSA [r15_118_TrROS] | 2.29 ± 0.04 kcal/mol | 2.95 ± 0.014 kcal/mol | 2.74 ± 0.036 kcal/mol
SAGGSAPPEWRTIMIPMKPDDVDNAIEELRNELPPGRNINIHLQDPEPGRYFMITIRGNKIEIHFMSAGGSA [r15_257_TrROS] | 2.1 ± 0.17 kcal/mol | 2.12 ± 0.21 kcal/mol | 2.29 ± 0.17 kcal/mol
SAGGSAPPNWRRIEITFYIPPGQPTVSELADHIAKRIGFPVTGVEIDKVERNPDGAYEVKVSIIVPSAGGSA [r15_654_TrROS] | 2.69 ± 0.056 kcal/mol | 2.9 ± 0.054 kcal/mol | 2.75 ± 0.15 kcal/mol
SAGGSAPREIPIMIRVPGYQIEIHKITVPPNGMVQIGLEWRNPGGDKPVTINIWLPLNEIKDFIKASAGGSA [r15_56_TrROS] | 1.83 ± 0.042 kcal/mol | 3.1 ± 0.042 kcal/mol | 2.54 ± 0.14 kcal/mol
SAGGSAPSISYTDPNITTITVNPPYITTTRPDGTTTVYKVNNGGDITKLKTTPPVPPAAATDASVASAGGSA [r15_393_JUSTAS] | -0.17 ± 0.071 kcal/mol | 0.421 ± 0.13 kcal/mol | 0.148 ± 0.16 kcal/mol
SAGGSAPSPEVPLWRFEAPGASGGVALIEGYPGGELRVVFFTDDGRPVELTFPVVVLPPAPLEELFSAGGSA [r15_478_TrMRF] | 1.51 ± 0.039 kcal/mol | 1.24 ± 0.086 kcal/mol | 1.38 ± 0.075 kcal/mol
SAGGSAPSSGNVLEIKVEKLPDGTLVGTLTVKDPNSSNTTTIEITIPSSKTPEEAEAELKKIVEEASAGGSA [r15_181_JUSTAS] | 2.11 ± 0.068 kcal/mol | 2.09 ± 0.025 kcal/mol | 2.11 ± 0.057 kcal/mol
SAGGSAPSVFPFKAKFKDYDLEIKSITVYENGEVEINAIAYNPDGKKKVELNITLPYSEILDLLKSSAGGSA [r15_56_TrMRF] | 2.35 ± 0.059 kcal/mol | 2.68 ± 0.037 kcal/mol | 2.55 ± 0.094 kcal/mol
SAGGSAPVVVVVTPKNGKPIKLKFKFTKKEEAEAAVEEIKKALPKNTKVEAFYVDEEVVKEDKEYLSAGGSA [r15_469_TrMRF] | 1.16 ± 0.017 kcal/mol | 1.97 ± 0.068 kcal/mol | 1.71 ± 0.054 kcal/mol
SAGGSARVVILPDGYLLVEVDGKPFLFGPNDEVEIEEEGDELILRLRLRDKDGKEVGEFPFRFRLESAGGSA [r15_424_TrMRF] | 2.71 ± 0.039 kcal/mol | 3.026 ± 0.016 kcal/mol | 2.9 ± 0.055 kcal/mol
SAGGSASAEEAARAFVAAHPDRALVEVEIERSFIPEKGVEVVTLTVTLAFPDGSRRVVPVTVTRPRSAGGSA [r15_266_JUSTAS] | 1.11 ± 0.044 kcal/mol | 1.06 ± 0.044 kcal/mol | 1.13 ± 0.071 kcal/mol
